From the Human Domainome abundance scans (Beltran et al. 2025)
± gives the uncertainty stated by the source.

assay: abundance fitness (aPCA) (normalised: wild type 0, dead -1); higher = more abundant; growth selection in yeast, the domain comes from the species named; conditions: Homo sapiens

| Substance | abundance fitness |
| --- | --- |
| Transcription factor SOX-4 M78A, Q06945 | -0.006 ± 0.058 |
| Transcription factor SOX-4 L99A, Q06945 | 0.041 ± 0.062 |
| Transcription factor SOX-4 K60R, Q06945 | -0.294 ± 0.066 |
| Transcription factor SOX-4 S81N, Q06945 | 0.007 ± 0.056 |

same assay, conditions: Saccharomyces cerevisiae (strain ATCC 204508 / S288c)

| Substance | abundance fitness |
| --- | --- |
| E3 ubiquitin-protein ligase RSP5 G329T, P39940 | 0.063 ± 0.071 |
| E3 ubiquitin-protein ligase RSP5 R346L, P39940 | 0.078 ± 0.05 |
| E3 ubiquitin-protein ligase RSP5 G324F, P39940 | -0.48 ± 0.45 |
| E3 ubiquitin-protein ligase RSP5 L333S, P39940 | -0.654 ± 0.053 |
| E3 ubiquitin-protein ligase RSP5 G336Q, P39940 | -0.271 ± 0.079 |
| E3 ubiquitin-protein ligase RSP5 S328R, P39940 | -0.095 ± 0.044 |
| E3 ubiquitin-protein ligase RSP5 G336T, P39940 | -0.461 ± 0.072 |
| E3 ubiquitin-protein ligase RSP5 G329R, P39940 | -0.021 ± 0.043 |
| E3 ubiquitin-protein ligase RSP5 A347R, P39940 | -0.031 ± 0.045 |
| E3 ubiquitin-protein ligase RSP5 T327H, P39940 | 0.019 ± 0.16 |
| E3 ubiquitin-protein ligase RSP5 Y348D, P39940 | -0.879 ± 0.091 |
| E3 ubiquitin-protein ligase RSP5 R346P, P39940 | -0.165 ± 0.049 |
| E3 ubiquitin-protein ligase RSP5 H352L, P39940 | -0.235 ± 0.057 |
| E3 ubiquitin-protein ligase RSP5 P334D, P39940 | -0.592 ± 0.091 |
| E3 ubiquitin-protein ligase RSP5 T326E, P39940 | 0.055 ± 0.052 |
| E3 ubiquitin-protein ligase RSP5 E344W, P39940 | -0.338 ± 0.046 |
| E3 ubiquitin-protein ligase RSP5 T354R, P39940 | -0.219 ± 0.044 |
| E3 ubiquitin-protein ligase RSP5 V350E, P39940 | -0.346 ± 0.057 |
| E3 ubiquitin-protein ligase RSP5 G336M, P39940 | -0.531 ± 0.1 |
| E3 ubiquitin-protein ligase RSP5 G345E, P39940 | -0.312 ± 0.057 |
| E3 ubiquitin-protein ligase RSP5 T354G, P39940 | -0.223 ± 0.043 |
| E3 ubiquitin-protein ligase RSP5 S335G, P39940 | -0.108 ± 0.052 |
| E3 ubiquitin-protein ligase RSP5 R364Y, P39940 | -0.026 ± 0.086 |
| E3 ubiquitin-protein ligase RSP5 A347Q, P39940 | -0.063 ± 0.055 |
| E3 ubiquitin-protein ligase RSP5 G329F, P39940 | -0.026 ± 0.091 |

| Substance | abundance fitness |
| --- | --- |
| E3 ubiquitin-protein ligase RSP5 R340V, P39940 | 0.022 ± 0.049 |
| E3 ubiquitin-protein ligase RSP5 E344H, P39940 | 0.116 ± 0.16 |
| E3 ubiquitin-protein ligase RSP5 R364M, P39940 | 0.051 ± 0.059 |
| E3 ubiquitin-protein ligase RSP5 P334L, P39940 | -0.837 ± 0.072 |
| E3 ubiquitin-protein ligase RSP5 E332M, P39940 | -0.093 ± 0.069 |
| E3 ubiquitin-protein ligase RSP5 L333K, P39940 | -0.6 ± 0.09 |
| E3 ubiquitin-protein ligase RSP5 W359R, P39940 | -0.265 ± 0.067 |
| E3 ubiquitin-protein ligase RSP5 R346A, P39940 | 0.121 ± 0.05 |
| E3 ubiquitin-protein ligase RSP5 G325W, P39940 | -0.141 ± 0.099 |
| E3 ubiquitin-protein ligase RSP5 T354S, P39940 | -0.049 ± 0.049 |
| E3 ubiquitin-protein ligase RSP5 T358W, P39940 | -0.626 ± 0.064 |
| E3 ubiquitin-protein ligase RSP5 R340Q, P39940 | 0.001 ± 0.054 |
| E3 ubiquitin-protein ligase RSP5 P334H, P39940 | -0.658 ± 0.078 |
| E3 ubiquitin-protein ligase RSP5 T357W, P39940 | -0.695 ± 0.061 |
| E3 ubiquitin-protein ligase RSP5 G325Y, P39940 | -0.057 ± 0.083 |
| E3 ubiquitin-protein ligase RSP5 H352M, P39940 | -0.104 ± 0.053 |
| E3 ubiquitin-protein ligase RSP5 G324N, P39940 | 0.182 ± 0.12 |
| E3 ubiquitin-protein ligase RSP5 P343E, P39940 | -0.019 ± 0.043 |
| E3 ubiquitin-protein ligase RSP5 E344L, P39940 | -0.31 ± 0.047 |
| E3 ubiquitin-protein ligase RSP5 S335A, P39940 | -0.063 ± 0.044 |
| E3 ubiquitin-protein ligase RSP5 T358Y, P39940 | -0.633 ± 0.12 |
| E3 ubiquitin-protein ligase RSP5 D351W, P39940 | -1.28 ± 0.097 |
| E3 ubiquitin-protein ligase RSP5 V350L, P39940 | 0.028 ± 0.048 |
| E3 ubiquitin-protein ligase RSP5 R355G, P39940 | -0.186 ± 0.041 |
| E3 ubiquitin-protein ligase RSP5 R346C, P39940 | 0.095 ± 0.069 |

| Substance | abundance fitness |
| --- | --- |
| E3 ubiquitin-protein ligase RSP5 G331A, P39940 | -0.034 ± 0.042 |
| E3 ubiquitin-protein ligase RSP5 T356Q, P39940 | -0.121 ± 0.05 |
| E3 ubiquitin-protein ligase RSP5 G336F, P39940 | -0.544 ± 0.067 |
| E3 ubiquitin-protein ligase RSP5 Q365Y, P39940 | -0.004 ± 0.1 |
| E3 ubiquitin-protein ligase RSP5 R363W, P39940 | -0.511 ± 0.06 |
| E3 ubiquitin-protein ligase RSP5 S328Y, P39940 | 0.036 ± 0.098 |
| E3 ubiquitin-protein ligase RSP5 Y348R, P39940 | -0.919 ± 0.049 |
| E3 ubiquitin-protein ligase RSP5 W359D, P39940 | -0.225 ± 0.059 |
| E3 ubiquitin-protein ligase RSP5 T357Q, P39940 | -0.441 ± 0.07 |
| E3 ubiquitin-protein ligase RSP5 H352P, P39940 | -0.636 ± 0.05 |
| E3 ubiquitin-protein ligase RSP5 H352V, P39940 | -0.361 ± 0.056 |
| E3 ubiquitin-protein ligase RSP5 N353L, P39940 | -0.278 ± 0.044 |
| E3 ubiquitin-protein ligase RSP5 G325A, P39940 | -0.046 ± 0.051 |
| E3 ubiquitin-protein ligase RSP5 A347F, P39940 | -0.067 ± 0.19 |
| E3 ubiquitin-protein ligase RSP5 V360D, P39940 | -0.098 ± 0.056 |
| E3 ubiquitin-protein ligase RSP5 D361K, P39940 | -0.25 ± 0.06 |
| E3 ubiquitin-protein ligase RSP5 Q366T, P39940 | 0.054 ± 0.078 |
| E3 ubiquitin-protein ligase RSP5 P362L, P39940 | -0.993 ± 0.051 |
| E3 ubiquitin-protein ligase RSP5 H352Y, P39940 | -0.176 ± 0.12 |
| E3 ubiquitin-protein ligase RSP5 G325H, P39940 | -0.035 ± 0.099 |
| E3 ubiquitin-protein ligase RSP5 F349R, P39940 | -0.937 ± 0.051 |
| E3 ubiquitin-protein ligase RSP5 G345T, P39940 | -0.665 ± 0.069 |
| E3 ubiquitin-protein ligase RSP5 R364T, P39940 | 0.077 ± 0.057 |
| E3 ubiquitin-protein ligase RSP5 D361Q, P39940 | -0.305 ± 0.086 |
| E3 ubiquitin-protein ligase RSP5 Y348S, P39940 | -0.738 ± 0.077 |

| Substance | abundance fitness |
| --- | --- |
| E3 ubiquitin-protein ligase RSP5 R340F, P39940 | -0.155 ± 0.16 |
| E3 ubiquitin-protein ligase RSP5 L333N, P39940 | -0.627 ± 0.1 |
| E3 ubiquitin-protein ligase RSP5 N353P, P39940 | -0.673 ± 0.065 |
| E3 ubiquitin-protein ligase RSP5 T356P, P39940 | -0.96 ± 0.069 |
| E3 ubiquitin-protein ligase RSP5 T357G, P39940 | -0.81 ± 0.047 |
| E3 ubiquitin-protein ligase RSP5 N353D, P39940 | -0.147 ± 0.15 |
| E3 ubiquitin-protein ligase RSP5 P343C, P39940 | -0.147 ± 0.16 |
| E3 ubiquitin-protein ligase RSP5 T358I, P39940 | -1.07 ± 0.38 |
| E3 ubiquitin-protein ligase RSP5 F349M, P39940 | -0.662 ± 0.15 |
| E3 ubiquitin-protein ligase RSP5 T327C, P39940 | -0.001 ± 0.06 |
| E3 ubiquitin-protein ligase RSP5 L330V, P39940 | -0.019 ± 0.041 |
| E3 ubiquitin-protein ligase RSP5 T358Q, P39940 | -0.326 ± 0.057 |
| E3 ubiquitin-protein ligase RSP5 E338W, P39940 | -0.978 ± 0.11 |
| E3 ubiquitin-protein ligase RSP5 P362V, P39940 | -0.705 ± 0.048 |
| E3 ubiquitin-protein ligase RSP5 R363Q, P39940 | -0.367 ± 0.06 |
| E3 ubiquitin-protein ligase RSP5 E338V, P39940 | -0.278 ± 0.053 |
| E3 ubiquitin-protein ligase RSP5 W359T, P39940 | -0.342 ± 0.055 |
| E3 ubiquitin-protein ligase RSP5 R364Q, P39940 | 0.066 ± 0.054 |
| E3 ubiquitin-protein ligase RSP5 R340A, P39940 | 0.018 ± 0.047 |
| E3 ubiquitin-protein ligase RSP5 G336Y, P39940 | -0.815 ± 0.19 |
| E3 ubiquitin-protein ligase RSP5 S328H, P39940 | -0.014 ± 0.076 |
| E3 ubiquitin-protein ligase RSP5 G331T, P39940 | -0.09 ± 0.046 |
| E3 ubiquitin-protein ligase RSP5 G329W, P39940 | -0.139 ± 0.058 |
| E3 ubiquitin-protein ligase RSP5 R364V, P39940 | 0.035 ± 0.049 |
